In paper PMC4686829 (Nature Communications, 2015):

Legend:
[1] = molecular target: HA fragment between residues I60 and G263 (F60–263) of A/Anhui/1/05, displayed on yeast (Influenza A virus A/Anhui/1/2005 (H5N1), strain); assay: flow cytometry on cells; details: one partner purified
[2] = molecular target: globular head of H5 HA, HA1 fragment between residue D55 and E271 (F55–271) of A/Anhui/1/2005 (Influenza A virus A/Anhui/1/2005 (H5N1)); assay: crystal structure; details: both partners purified

Binder | binding result [1] | binding result [2]
100F4, full-length human IgG1 (antibody, V domains shown, IgG1; source: 293 T cells, transient transfection, purified (Protein A agarose)) VH: QLQLQESGLGLVKPSETLSLTCTVSGDSVSSGSYYWSWLRQPPGKGLEWIGNMHGSGHTNYNPSLKSRVTITPDTSKNHFSLRLSSVTAADTAVYYCARALLTTVTTFEYWGQGTLVTVSS VL: QSALTQPPSVSGAPGQRVTIPCTGGSSNIGAGYSVHWYQQLPGTAPKLLIYGSNSRPSGVPDRFSGSKSGTSASLAITGLRPEDEADYYCQSYDSSLSGSQVFGAGTRVTVL | binds | 
AVFluIgG03 Fab (Fab, V domains shown, also called Fab of AVFluIgG03; AVFulgG03) VH: EVQLLESGGGLVQPGGSLRVSCTNSGFTFSNYAMSWVRQAPGKGLEWVSAISGNGGSGTYYADSVKGRFTISRDNSKNTMYLQMNSLRAEDTAVYYCVRDDSYDGGGHYGLHNWFDSWGQGTLVTVSS VL: SVLTQPPSVSGAPGQRVTISCTGSSSNIGAGYDVHWYQQLPGTAPKLLIYGNSNRPSGVPDRFSGSKSGTSASLAITGLQAEDEADYYCQSYDSSVVVFGGGTKLEIK |  | binds
AVFluIgG03, full-length human IgG1 (antibody, V domains shown, IgG1; also called AVFulgG03; AVFluIg03; source: 293 T cells, transient transfection, purified (Protein A agarose)) VH: EVQLLESGGGLVQPGGSLRVSCTNSGFTFSNYAMSWVRQAPGKGLEWVSAISGNGGSGTYYADSVKGRFTISRDNSKNTMYLQMNSLRAEDTAVYYCVRDDSYDGGGHYGLHNWFDSWGQGTLVTVSS VL: SVLTQPPSVSGAPGQRVTISCTGSSSNIGAGYDVHWYQQLPGTAPKLLIYGNSNRPSGVPDRFSGSKSGTSASLAITGLQAEDEADYYCQSYDSSVVVFGGGTKLEIK | binds | 
65C6 Fab (Fab, V domains shown) VH: EVQLVQSGAEVKKPGESLRISCKGFAYSSTYFWISWVRQMPGKGLEWMGRIDPTDSYINYSPSFQGHVTISVDRSISTVYLQWSSLKASDTAMYYCAYHRRGHFYGSGSAWDWFESWGQGTLVTVSS VL: EIVLTQSPLTLSVSPGERATLSCRASQSVSSNLAWYQQMPGQAPRLLIYGASTRATGIPARLSGSASGTEFTLTISSLQSEDFAVYYCQQYNNWPYTFGQGTKLEIK |  | binds
65C6, full-length human IgG1 (antibody, V domains shown, IgG1; source: 293 T cells, transient transfection, purified (Protein A agarose)) VH: EVQLVQSGAEVKKPGESLRISCKGFAYSSTYFWISWVRQMPGKGLEWMGRIDPTDSYINYSPSFQGHVTISVDRSISTVYLQWSSLKASDTAMYYCAYHRRGHFYGSGSAWDWFESWGQGTLVTVSS VL: EIVLTQSPLTLSVSPGERATLSCRASQSVSSNLAWYQQMPGQAPRLLIYGASTRATGIPARLSGSASGTEFTLTISSLQSEDFAVYYCQQYNNWPYTFGQGTKLEIK | binds | 
